Source: US20240026407A1, “MODIFICATION OF SAPONINS” (GLAXOSMITHKLINE BIOLOGICALS SA, priority 2020, published 2024)

Experiments:
Assay type in all cases: biochemical, Quillaja saponaria
[1] = Experiment 6-1: screening of rhamnosidases for derhamnosylation of saponins in treated bark extract (2%), QS-17 2310 to QS-18 2164 (PAR %); conditions: TBE 2%, pH 7.5, 30 degC, 18 h; TIC peak area ratio percent, LCMS/MS; negative controls 3.061, 2.429
[2] = Experiment 6-1: screening of rhamnosidases for derhamnosylation of saponins in treated bark extract (2%), desglucosyl-QS-17 2134 to QS-21 1988 (PAR %); conditions: TBE 2%, pH 7.5, 30 degC, 18 h; TIC peak area ratio percent, LCMS/MS; negative controls 2.719, 2.158
[3] = Experiment 6-1: screening of rhamnosidases for derhamnosylation of saponins in treated bark extract (2%), QS-17 2296 to QS-18 2150 (PAR %); conditions: TBE 2%, pH 7.5, 30 degC, 18 h; TIC peak area ratio percent of rhamnosylated starting saponin to derhamnosylated product, LCMS/MS; negative controls 4.876, 5.225
[4] = Experiment 6-1: specificity of rhamnosidases towards other rhamnose residues (C3 saccharide rhamnose, C28 saccharide rhamnose); conditions: TBE 2%, pH 7.5, 30 degC, 18 h; LCMS/MS; negative controls 0.18, 0.17

Row | Molecule | Peak57 (PAR %) [1] | Peak75 (PAR %) [2] | QS-17 (PAR %) [3] | ratio PP/QS-21 [4]
1 | 998 (protein, Rhodanobacter denitrificans) MLSIALAAALAAGAVAPDWHDGLDWHGVHVAISRDAQQGYTLAWPYGQRTIAAQPLATQTASPLFDGLFAMAQDDLKQDSVSAIRDGAFDHGQPIPCQCFETGLKWPYVWTRDLSYAIDLGLWRFDPARSRNGLKFKLSGVRVASAPQGPAPKRLYPMQDTGSGGSWPISTDRVVWFLGARHLLDDQAFADDVYRALDATLAQDRQYAFDAGFGLYRGETSFLDWREQSYPAWTADEVTFIAQSYALSTNVLHYQALQLAANLADTHHDAKAAAGYRADAAALKAAINAHFWRAERGMYMSYLSGDGTPYDSYDLLGIALAIDSGVAGGERAKQALANYPTWPAGSPVIWPERADQPIYHNRAIWPFVSAYALRAARLTEQPARIAHEIESVLRGAALYGSNMENYELLTQGQHVDEGKLSGPVVNSPRQLWSVAAALAVVTEGVFGLNEDGSVEPKLPTALVPMLFGQRRTITLDLHERQITLQLPEKISGNLLVADRTRTQGTATTVTLKAVQVPDAPLRTDAPLYAPLAPAAPVVQAAGNGWRVSAEGKVRLYLNGRAHGDIDGTATLPRQPGLTCFSATRVDAHGLESLHSPDTCVGETAKVNGSWPRRWTAPATGRYRVALDYANDHGPINTGITAAVKMLEVSCAGSDPQRLPIVMPHSVRAQRSTWGTFTAQAGSACRFALDDGFNMSYLAHFAHYTANNGSGGNGGSSGPLNQAEVHALLIAPLAADRGTP | 3.326% | 2.402% | 5.111% | 0.15
2 | 1043 (protein, listed as Flavobacterium johnsoniae) MKLSLKTFFYTMLLFSFFHAFSQEKLVSPWPESSNINQPWARWWWMGSAVDKPNLKRSLIDFHKAGIGGVEITPIYGVKGEENNFIDYLSPKWMEMLDYTIHVSDSLKMQVDMVLGTGWPYGGSHVTLPHAATKLIVEKYTVKKNETFDRDITVDSSKEKTPASLLYVVAYGNDGSFVNLTNELQNKKVNVKDKGLEGSNIKLPNKLEPNKLNWKAKKADYTIYAVFSGKTGQQVKRAAPGGKGYTLDHYSEEALKAYVIPFNEALKGREGKIRAVFNDSFEVYGTDFTPNFFEEFQKLRGYDLKKQLPVLLNETDNEIGNRIRSDYRQTISDLLLNKFDKFWTNWAHSKNFKTKLQAHGSPGNLIDLYASADIPECETFGSMPFDIPGFRRDKEDIREGDADPVMLKFSSSAAHISGKNLVSSETFTWLREHFKTALSQCKPEAEDLMLNGVNHIFLHGSTYSPDRAVWPGWQFYASVNFNSNNTIWEDAPALFSYISNCQSLLQQGKPDNEILLYWPIFDAWDKYEKGTLFYQFKIHSLSDWLYGTSFYDTTKNLMKKGYSVDFISDNFIAEAKVVNGNIVLPGGNFKSLVIPSCKKMPVETLQKLIELKKAGACILFEGLPESVPGFKDYKKQEQNLKNLLAENKIQAVSNIFTSLEDAKILPESLVNTGLKSIRRDINGEKIYYLVNHTAKTIDDFIPLQVENKEIILLDPLTHESGNAIVNKKDKITYVKIKIEPGQSYFLKTENTASQKKWNYFESASEPIALKGNWKLSFDKGGPKLPADAVVSNLESWTKLSPDAEAFSGSAAYTLQFENPNPKIENWSLNLGDVRESAKVWLNDEFIGTAWSVPYKLNIQKLKPGKNVLKIQVTNLPANRIRDMELKGQEWKIFHEINMVDKDYKKFDATKWIPMPSGLLGPVTLTALKQEN | 3.119% | 2.791% | 5.098% | 0.15
3 | 1058 (protein, listed as Cyclobacterium marinum) MKLTTYYFCLIAGLCSLFTFGLHAQESAIYKQMRQNFQQPPNTAKPTVYHWWLGGDVDTVRLKEEILSFDKAGIAGFTIFEIGSRDTVFVGAGPEFLGEASLETIKVAVEEAGKYGMEVGLNTASSWNAGGNWLTPKHAAKSIYQRKVNVSGGGKEKIKLPFPDIPEKDPRGRKRLISYGKDGKPVYSEEIAVLAIPLVGENAAIDTSLIKDVSIYFDANKEVLNWDVPEGDWKIVRYVSSNSGENLVLPSKYSAGPIVDHFDADATAFHFNYIIDRLESKLGDLRKTSLKNLYMASYEARGFNWTPTLPQEFQELNGYDIKKFLPILFGEVSLSQEATAAFRAGFQRTLSELMIKNFYMKSKEICNAHGLKNNSEAGGPGYPLHDVPVEPLKALGKGLDIPRGEFWINHHNFSEEGMDVLRVVKEVSSASNIYGVGMVEMEAFTTFQQWQEGPYEMKPMGDRAFAEGMNRVVVHGSTHNPKGTGNPGIVYHAGTHYNDKRVWWKKVRPFNDYLARISYVLQEADFQSDVLYYYGDTIPNYGGHKRSRFNPGEGYDFELLNTEILFGLEVKNGKIINPRNGAEFKVLALTKEHEINPKVLSKLEQMASSGAIITGPKPNRIAPERNMKELPNMNGWLDNLWKPFSKQSFKPGSKAIYYNVSVGEILKALELSPDFSYKGNGFYTLDYTHYQKGDMDFYFIVNTTGEWLSRDLIFRQEGKVPELWNPENGNISPIPIYKETEEGISLPLSLAPHESAFVVFKPGIKPVHFTKIAHGGIHPPKVRYSDQGIEFWEEGEFGLGHGEDTLILNNFPNVKSLEGAWEIYFPEGWGAPDKAIFPELKSWTESENEGIKYFSGTARYEKKFIHEMHASEYPEAKIYLDLGDLSHVAEVWLNDKPLGITWSKPYRFDVTEAIKPGINTLKIEVANTWSNRLTGDAITGKDYTQTHVNNTVIKGMPNFRVTWENAPLIPSGILGPVTLTTVLPIAMPK | 3.144% | 2.398% | 5.121% | 0.17
4 | 1011 (protein, listed as Paenibacillus sp.) MQSNTAVLLKGGDAVYMKVKGDTDNMAAKDWGDWSARWIWLQEEQGNADKDARHERVYFRRVFELPAGTGKAYSLNMAITGDSRYRLFVNGQRQWAGPCKGHEHVQYYEEFNLEGILQPGINVIAVTVVHYAGTAPFEMGEDGPLSVWRSEQGGLLVEAEITADGQLVQELPTDTSWKAIRDLSYRLRPFPMMRWMGGLEEAAGDTALRDWTLPEYDDSAWSAARIVQPVRDDYGQLTPWQLERRPVPLLYEQEQCFWKLMRSSCGEGKALFTAGHRLELRDGASSTVPSIAGPAAEGVLVQAGQQLWLELDAGELTTGYLQLKLQGGGGSLITLQYAECYEEETGDEEVRRKAVRDEMREQVLRGGYDSYRPAGYGTEDQPEVYEPFWFRTFRYVRLEVHAGHEPLRITGINYRETGYPLQLQGSFHCSDERYNRLWELSVRTLSRCMHETYEDTPYYEQLQYTMDTRLMMEFTYLLSGDDRLARRAMEDYRASQLPNGMLQSRYPSVLPQVIPSFSLYWIGMIHDHYRVFRDLTLVKHYRTAMLSVLDWFDQRLTPEGLVDRTPRQYWNYYDWVEEWPLGAPDCTNEAPATLMSLMYAFALGQAAELLEASGWTQIAAELRQRKAAVNAAVLDNCRQADGPLFRDSPEAGPEVQLSQHTQVWAVLAGTVSAAEGEALLQTVLTDTSMAKLSLPMSYYLFRALELSGMYDRSYGLWTRWMKQLELGLTTLPEIDSADTRSDCHAWSALPITEFTRGILGVRQDIDGIILQPHCGDLQYASGAVSTEQGLITVSWEITTEEGVEVFRLEAVWTPGSAITVILPNGEVQKSDTGRIEIDIRGFNC | 3.124% | 2.854% | 5.089% | 0.19
5 | 1024 (protein, Bacteroides thetaiotaomicron) MKRTLLLTFLLLSVSALCFSQKLVEVAKGYSCTSVNTTIFRNNSLVTHGDEQYISYYDADGYLVLGKRKLNSKQWTLHRTQYRGNVKDAHNIISIMVDGEGYLHVSFDHHGHKLNYCRSIAPGSLELGDKMPMTGVDEGNVTYPEFYPLTDGDLLFVYRSGSSGRGNLVMNRYSLKDHKWARVQDVLIDGEDKRNAYWQLYVDEKGTIHLSWVWRETWQVETNHDLCYARSFDNGVTWYKSDGEQYKLPITASNAEYACRIPQNSELINQTSMSADAGGNPYIATYWRSSDSEVPQYRIVWNDGKTWHNRQVTDRKTPFTLKGGGTKMIPVARPRIVVEDGEIFYIFRDEERGSRVSMAHTADVANGKWIVTDLTDFSVDAWEPSHDTELWKKQRKLNLFVQHTCQGDGERTAEIEPQMIYVLEANTNTKK | 2.924% | 2.806% | 5.145% | 0.17
